The assay has as its target HIV-1 CA hexamer (CA A14C/E45C/W184A/M185A mutant) (HIV-1). The assay is described as follows: SEC; Superdex 10/300 GL increase column in 50 mM Tris pH 8; elution at 12.5 mL. For orientation: Size exclusion chromatography separates by hydrodynamic size, large species first.

For “HIV-1 CA hexamer (CA A14C/E45C/W184A/M185A mutant) (complex)”, the stoichiometry N (in general, a count of units in the complex or per binding partner) worked out at 6.
